Assays:
human IL-17C [1] = target: T1, human IL-17C (human, UniProt Q9P0M4 19-197); assay: competition ELISA: scFv coated, biotinylated IL-17A, unlabeled cytokine titrated
T1 sequence: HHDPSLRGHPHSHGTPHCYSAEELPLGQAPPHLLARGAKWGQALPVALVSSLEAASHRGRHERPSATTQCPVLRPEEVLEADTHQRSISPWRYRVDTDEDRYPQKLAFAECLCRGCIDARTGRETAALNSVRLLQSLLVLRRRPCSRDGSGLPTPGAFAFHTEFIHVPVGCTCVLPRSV
Source text: (§1) For this purpose, the scFvs were coated on a 96-well ELISA plate.

human IL-17F [2] = target: T2, human IL-17F (human, UniProt Q96PD4 31-163); assay: as above
T2 construct: Peprotech Cat. No. 200-25 in the direct ELISA
T2 sequence: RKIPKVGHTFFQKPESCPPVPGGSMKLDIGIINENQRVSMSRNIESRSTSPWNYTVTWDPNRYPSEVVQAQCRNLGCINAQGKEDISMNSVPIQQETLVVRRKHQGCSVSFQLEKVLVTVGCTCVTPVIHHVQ
Source text: as §1

human IL-17A [3] = target: T3, human IL-17A (human, UniProt Q16552 24-155); assay: SPR (Biacore T200), capture setup: biotinylated IL-17A captured, scFv as analyte
T3 construct: Recombinant human IL-17A (Peprotech Cat. No. 200-17), disulfide-linked homodimer from E. coli; Biotinylated or RPE-labelled in some assays; also called hIL-17A; IL-17A-RPE (labelled)
Procedure: (§2) After each analyte injection cycle the CAP sensor chip was regenerated and new antigen was captured. The scFvs were injected as analyte using a dose response multi-cycle kinetic assay with concentrations of the analyte ranging from 0.35 to 90 nM diluted in running buffer. Obtained sensorgrams were fitted using the 1:1 binding model. In addition, the scFvs were analyzed in an alternative SPR assay setup (“direct setup”).

cynomolgus monkey IL-17A [4] = target: T4, cynomolgus monkey IL-17A (Macaca fascicularis (cynomolgus monkey)); assay: SPR (Biacore T200)
T4 construct: also called cyno IL-17A; cyno IL17A
Procedure: as §2

human IL-17A [5] = target: T3, human IL-17A; assay: SPR (Biacore T200), direct setup: IL-17A amine-coupled on CM5, scFv as analyte
Procedure: as §2

human IL-17A [6] = target: T3, human IL-17A; assay: competitive ELISA: IL-17RA coated, biotinylated IL-17A preincubated with scFv
Procedure: Finally, Tetramethylbenzidin solution (KPL, Cat. No. 53-00-00) was added to develop the plate for 5 to 10 minutes and the reaction was stopped with 1 M HCl. The plate was read using a microtiter plate reader (Infinity reader M200 Pro, Tecan) at a wavelength of 450 nm and 570 nm (reference wavelength).

human IL-17A [7] = target: T3, human IL-17A; assay: cell-based or functional assay
human IL-17E [8] = target: T5, human IL-17E (human, UniProt Q9H293 33-177); assay: competition ELISA: scFv PRO571 coated, binding of biotinylated IL-17A detected, unlabeled IL-17E titrated as competitor [II) A]
T5 construct: also called IL-25
T5 sequence: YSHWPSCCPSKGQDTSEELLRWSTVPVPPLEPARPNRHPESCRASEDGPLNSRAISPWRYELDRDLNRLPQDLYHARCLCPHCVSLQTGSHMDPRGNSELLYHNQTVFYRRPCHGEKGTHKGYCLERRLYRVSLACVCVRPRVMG
Source text: as §1

human IL-17B [9] = target: T6, human IL-17B (human, UniProt Q9UHF5 21-180); assay: competition ELISA: scFv PRO571 coated, binding of biotinylated IL-17A detected, unlabeled IL-17B titrated as competitor [II) B]
T6 sequence: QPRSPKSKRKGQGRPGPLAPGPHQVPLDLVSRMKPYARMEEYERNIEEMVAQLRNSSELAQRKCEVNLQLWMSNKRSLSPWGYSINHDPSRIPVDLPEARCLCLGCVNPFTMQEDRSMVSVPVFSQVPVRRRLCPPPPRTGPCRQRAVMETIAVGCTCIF
Source text: as §1

cynomolgus monkey IL-17A [10] = target: T4, cynomolgus monkey IL-17A; assay: SPR (Biacore T200), cynomolgus IL-17A, scFv as analyte
Procedure: as §2

human IL-17D [11] = target: T7, human IL-17D (human, UniProt Q8TAD2 16-202, limits assumed); assay: competition ELISA: scFv PRO571 coated, binding of biotinylated IL-17A detected, unlabeled IL-17D titrated as competitor [II) A]
T7 sequence: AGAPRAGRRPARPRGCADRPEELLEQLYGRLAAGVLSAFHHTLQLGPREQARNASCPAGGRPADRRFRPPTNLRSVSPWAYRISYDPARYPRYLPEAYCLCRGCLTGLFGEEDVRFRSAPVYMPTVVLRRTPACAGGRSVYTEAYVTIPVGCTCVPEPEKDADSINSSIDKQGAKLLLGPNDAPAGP
Source text: as §1

human IL-17B [12] = target: T6, human IL-17B; assay: competition ELISA: scFv PRO592 coated, binding of biotinylated IL-17A detected, unlabeled IL-17B titrated as competitor [II) D]
Source text: as §1

human IL-17E [13] = target: T5, human IL-17E; assay: competition ELISA: scFv PRO592 coated, binding of biotinylated IL-17A detected, unlabeled IL-17E titrated as competitor [II) C]
Source text: as §1

human IL-17F [14] = target: T2, human IL-17F; assay: competition ELISA: scFv PRO592 coated, binding of biotinylated IL-17A detected, unlabeled IL-17F titrated as competitor [II) C]
Source text: as §1

human IL-17D [15] = target: T7, human IL-17D; assay: competition ELISA: scFv PRO592 coated, binding of biotinylated IL-17A detected, unlabeled IL-17D titrated as competitor [II) C]
Source text: as §1

human IL-17C [16] = target: T1, human IL-17C; assay: competition ELISA: scFv PRO592 coated, binding of biotinylated IL-17A detected, unlabeled IL-17C titrated as competitor [II) D]
Source text: as §1

B1: PRO571 (humanized anti-IL-17A scFv, CDR graft of 27-31-C04) (scFv)
scFv: DIQMTQSPSSLSASVGDRVTITCQASESIYRYLSWYQQKPGKAPKLLIYLASTLTSGVPSRFSGSGSGTDFTLTISSLQPEDFATYYCQSNFGTASTTYYNTFGGGTKLTVLGGGGGSGGGGSGGGGSGGGGSEVQLVESGGGLVQPGGSLRLSCAASGFSFSGFYYMCWVRQAPGKGLEWIGCIDTGDGTTYYASWAKGRFTISRDNSKNTVYLQMNSLRAEDTAVYYCARDAAYGGYAYPAHGMDLWGQGTLVTVSS
notes: VL-linker-VH; also called 27-31-C04-sc01; 27_31_C04_sc01
- binding result (human IL-17C [1]): no binding (tested: 100000 ng/ml)
- binding result (human IL-17F [2]): no binding (tested: 20000 ng/ml)
- Kd (human IL-17A [3]): 0.119 nM
- koff (human IL-17A [3]): 0.000144 s⁻¹
- kon (human IL-17A [3]): 1.21e+06 M⁻¹ s⁻¹
- KD, cyno/KD, human (cynomolgus monkey IL-17A [4]): 0.28
- Kd (human IL-17A [5]): 0.0403 nM
- koff (human IL-17A [5]): 4.55e-05 s⁻¹
- kon (human IL-17A [5]): 1.13e+06 M⁻¹ s⁻¹
- IC50 (human IL-17A [6]): 1.8 ng/mL
- IC50 in HT-29 assay, GRO-α secretion (human IL-17A [7]): 0.1 ng/mL
- binding result (human IL-17E [8]): no binding (tested: about 20000 ng/mL)
- binding result (human IL-17B [9]): no binding (tested: about 100000 ng/mL)
- Kd (cynomolgus monkey IL-17A [10]): 0.0331 nM
- koff (cynomolgus monkey IL-17A [10]): 3.88e-05 s⁻¹
- kon (cynomolgus monkey IL-17A [10]): 1.17e+06 M⁻¹ s⁻¹
- binding result (human IL-17D [11]): no binding (tested: about 500000 ng/mL)

B2: PRO592 (humanized anti-IL-17A scFv, STR graft of 27-31-C04) (scFv)
scFv: DIQMTQSPSSLSASVGDRVTITCQASESIYRYLSWYQQKPGKAPKLLIYLASTLTSGVPSRFSGSGSGTDFTLTISSLQPEDFATYYCQSNFGTASTTYYNTFGGGTKLTVLGGGGGSGGGGSGGGGSGGGGSEVQLVESGGGLVQPGGSLTLSCAASGFSFSGFYYMCWVRQAPGKGLEWIGCIDTGDGTTYYASWAKGRFTISRDNSKNTVYLQMNSLRAEDTAVYYCARDAAYGGYAYPAHGMDLWGPGTLVTVSS
notes: VL-linker-VH; also called 27-31-C04-sc02; 27_31_C04_sc02
- Kd (human IL-17A [3]): 0.367 nM
- koff (human IL-17A [3]): 0.000142 s⁻¹
- kon (human IL-17A [3]): 387000 M⁻¹ s⁻¹
- KD, cyno/KD, human (cynomolgus monkey IL-17A [4]): 0.44
- Kd (human IL-17A [5]): 0.0376 nM
- koff (human IL-17A [5]): 4.07e-05 s⁻¹
- kon (human IL-17A [5]): 1.08e+06 M⁻¹ s⁻¹
- binding result (human IL-17B [12]): no binding (tested: about 100000 ng/mL)
- IC50 (human IL-17A [6]): 0.9 ng/mL
- binding result (human IL-17E [13]): no binding (tested: about 20000 ng/mL)
- binding result (human IL-17F [14]): no binding (tested: about 20000 ng/mL)
- IC50 in HT-29 assay, GRO-α secretion (human IL-17A [7]): 0.13 ng/mL
- binding result (human IL-17D [15]): no binding (tested: about 500000 ng/mL)
- binding result (human IL-17C [16]): no binding (tested: about 100000 ng/mL)
- Kd (cynomolgus monkey IL-17A [10]): 0.16 nM
- koff (cynomolgus monkey IL-17A [10]): 5.38e-05 s⁻¹
- kon (cynomolgus monkey IL-17A [10]): 336000 M⁻¹ s⁻¹
